According to the supplement of paper PMC11246515:
± gives the standard deviation of the averaged measurements.

Experiment: total protein half-life in vivo (active degradation + dilution); higher = more stable protein
[1] = E. coli NCM3722 delta-clpP delta-lon delta-hslV, growth: N-lim chemostat, doubling time 6 h
[2] = E. coli NCM3722 delta-clpP, growth: N-lim chemostat, doubling time 6 h
[3] = E. coli NCM3722 delta-hslV, growth: N-lim chemostat, doubling time 6 h
[4] = E. coli NCM3722 delta-lon, growth: N-lim chemostat, doubling time 6 h
[5] = E. coli NCM3722 delta-smpB, growth: N-lim chemostat, doubling time 6 h
[6] = wild type E. coli NCM3722, growth: C-lim chemostat, doubling time 3 h
[7] = wild type E. coli NCM3722, growth: C-lim chemostat, doubling time 6 h
[8] = wild type E. coli NCM3722, growth: C-lim chemostat, doubling time 12 h
[9] = wild type E. coli NCM3722, growth: N-lim chemostat, doubling time 6 h
[10] = wild type E. coli NCM3722, growth: N-lim chemostat, doubling time 12 h
[11] = wild type E. coli NCM3722, growth: P-lim chemostat, doubling time 6 h
[12] = wild type E. coli NCM3722, growth: P-lim chemostat, doubling time 12 h

Chain of P0ADC1 (chain, as listed by the source): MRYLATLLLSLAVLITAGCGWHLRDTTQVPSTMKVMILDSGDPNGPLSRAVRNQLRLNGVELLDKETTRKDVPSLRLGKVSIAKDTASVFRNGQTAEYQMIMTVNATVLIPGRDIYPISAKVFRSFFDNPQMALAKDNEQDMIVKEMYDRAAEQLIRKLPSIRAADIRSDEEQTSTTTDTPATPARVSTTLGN
Chain of P0ABR5 (chain, as listed by the source): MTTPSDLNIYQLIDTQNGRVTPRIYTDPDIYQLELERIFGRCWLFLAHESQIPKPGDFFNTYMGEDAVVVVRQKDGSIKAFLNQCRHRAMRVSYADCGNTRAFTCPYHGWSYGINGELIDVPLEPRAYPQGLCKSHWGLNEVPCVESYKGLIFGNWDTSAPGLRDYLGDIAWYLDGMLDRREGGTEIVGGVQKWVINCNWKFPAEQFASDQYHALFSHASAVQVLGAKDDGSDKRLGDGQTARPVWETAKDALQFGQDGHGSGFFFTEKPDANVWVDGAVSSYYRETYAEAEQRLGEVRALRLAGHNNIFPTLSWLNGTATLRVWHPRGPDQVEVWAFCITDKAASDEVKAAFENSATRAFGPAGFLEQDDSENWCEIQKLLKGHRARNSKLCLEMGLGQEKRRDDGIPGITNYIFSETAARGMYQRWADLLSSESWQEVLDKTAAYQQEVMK

| Substance | total protein half-life in vivo [1] [h] | total protein half-life in vivo [2] [h] | total protein half-life in vivo [3] [h] | total protein half-life in vivo [4] [h] | total protein half-life in vivo [5] [h] | total protein half-life in vivo [6] [h] | total protein half-life in vivo [7] [h] | total protein half-life in vivo [8] [h] | total protein half-life in vivo [9] [h] | total protein half-life in vivo [10] [h] | total protein half-life in vivo [11] [h] | total protein half-life in vivo [12] [h] |
| --- | --- | --- | --- | --- | --- | --- | --- | --- | --- | --- | --- | --- |
| MYQPDFPPVPFRSGLYPVVDSVQWIERLLDAGVRTLQLRIKDRRDEEVEADVVAAIALGRRYNARLFINDYWRLAIKHQAYGVHLGQEDLQATDLNAIRAAGLRLGVSTHDDMEIDVALAARPSYIALGHVFPTQTKQMPSAPQGLEQLARHVERLADYPTVAIGGISLARAPAVIATGVGSIAVVSAITQAADWRLATAQLLEIAGVGDE | 6.1 ± 1.1 | 3.05 ± 0.11 | 3.34 ± 0.23 | 4.173 ± 0.028 | 2.77 ± 0.045 | 2.31 ± 0.52 | 4.76 ± 0.58 | 6.78 ± 0.74 | 3.01 ± 0.54 | 5.18 ± 0.5 | 2.01 ± 0.57 | 3.48 ± 0.66 |
| MYQVVASDLDGTLLSPDHTLSPYAKETLKLLTARGINFVFATGRHHVDVGQIRDNLEIKSYMITSNGARVHDLDGNLIFAHNLDRDIASDLFGVVNDNPDIITNVYRDDEWFMNRHRPEEMRFFKEAVFQYALYEPGLLEPEGVSKVFFTCDSHEQLLPLEQAINARWGDRVNVSFSTLTCLEVMAGGVSKGHALEAVAKKLGYSLKDCIAFGDGMNDAEMLSMAGKGCIMGSAHQRLKDLHPELEVIGTNADDAVPHYLRKLYLS | 3.6 ± 0.88 | 2.94 ± 0.046 | 3.53 ± 0.15 | 3.67 ± 0.27 | 3.31 ± 0.055 | – | 4.88 ± 0.24 | 8.98 ± 0.53 | 3.39 ± 0.091 | 5.36 ± 0.23 | 4.82 ± 0.18 | 10.2 ± 0.16 |
| MYRIVLGKVSTLSAAPLPPGLREQAPQGPRRERWLAGRALLSHTLSPLPEIIYGEQGKPAFAPEMPLWFNLSHSGDDIALLLSDEGEVGCDIEVIRPRANWRWLANAVFSLGEHAEMDAVHPDQQLEMFWRIWTRKEAIVKQRGGSAWQIVSVDSTYHSSLSVSHCQLENLSLAICTPTPFTLTADSVQWIDSVN | 4.86 ± 0.67 | – | 3.56 ± 0.17 | 3.99 ± 0.64 | 2.53 ± 0.075 | 2.55 ± 0.032 | 4.94 ± 0.18 | 8.278 ± 0.081 | 3.78 ± 0.16 | 6.11 ± 0.44 | 5.86 ± 0.65 | 11.1 ± 2.4 |
| MYSSSRKRCPKTKWALKLLTAAFLAASPAAKSAVNNAYDALIIEARKGNTQPALSWFALKSALSNNQIADWLQIALWAGQDKQVITVYNRYRHQQLPARGYAAVAVAYRNLQQWQNSLTLWQKALSLEPQNKDYQRGQILTLADAGHYDTALVKLKQLNSGAPDKANLLAEAYIYKLAGRHQDELRAMTESLPENASTQQYPTEYVQALRNNQLAAAIDDANLTPDIRADIHAELVRLSFMPTRSESERYAIADRALAQYAALEILWHDNPDRTAQYQRIQVDHLGALLTRDRYKDVISHYQRLKKTGQIIPPWGQYWVASAYLKDHQPKKAQSIMTELFYHKETIAPDLSDEELADLFYSHLESENYPGALTVTQHTINTSPPFLRLMGTPTSIPNDTWLQGHSFLSTVAKYSNDLPQAEMTARELAYNAPGNQGLRIDYASVLQARGWPRAAENELKKAEVIEPRNINLEVEQAWTALTLQEWQQAAVLTHDVVEREPQDPGVVRLKRAVDVHNLAELRIAGSTGIDAEGPDSGKHDVDLTTIVYSPPLKDNWRGFAGFGYADGQFSEGKGIVRDWLAGVEWRSRNIWLEAEYAERVFNHEHKPGARLSGWYDFNDNWRIGSQLERLSHRVPLRAMKNGVTGNSAQAYVRWYQNERRKYGVSWAFTDFSDSNQRHEVSLEGQERIWSSPYLIVDFLPSLYYEQNTEHDTPYYNPIKTFDIVPAFEASHLLWRSYENSWEQIFSAGVGASWQKHYGTDVVTQLGYGQRISWNDVIDAGATLRWEKRPYDGDREHNLYVEFDMTFRF | – | – | – | – | – | – | – | > 16 | – | – | – | – |
| MYTRNLLWLVSLVSAAPLYAADVPANTPLAPQQVFRYNNHSDPGTLDPQKVEENTAAQIVLDLFEGLVWMDGEGQVQPAQAERWEILDGGKRYIFHLRSGLQWSDGQPLTAEDFVLGWQRAVDPKTASPFAGYLAQAHINNAAAIVAGKADVTSLGVKATDDRTLEVTLEQPVPWFTTMLAWPTLFPVPHHVIAKHGDSWSKPENMVYNGAFVLDQWVVNEKITARKNPKYRDAQHTVLQQVEYLALDNSVTGYNRYRAGEVDLTWVPAQQIPAIEKSLPGELRIIPRLNSEYYNFNLEKPPFNDVRVRRALYLTVDRQLIAQKVLGLRTPATTLTPPEVKGFSATTFDELQKPMSERVAMAKALLKQAGYDASHPLRFELFYNKYDLHEKTAIALSSEWKKWLGAQVTLRTMEWKTYLDARRAGDFMLSRQSWDATYNDASSFLNTLKSDSEENVGHWKNAQYDALLNQATQITDATKRNALYQQAEVIINQQAPLIPIYYQPLIKLLKPYVGGFPLHNPQDYVYSKELYIKAH | – | 5.575 ± 0.035 | 6.61 ± 1.4 | 6.72 ± 0.075 | 5.64 ± 0.24 | 2.9 ± 0.11 | 5.96 ± 0.64 | 11 ± 0.65 | 5.531 ± 0.0077 | – | 5.83 ± 0.61 | 11.7 ± 0.71 |
| MYVAVKGGEKAIDAAHALQESRRRGDTDLPELSVAQIEQQLNLAVDRVMTEGGIADRELAALALKQASGDNVEAIFLLRAYRTTLAKLAVSEPLDTTGMRLERRISAVYKDIPGGQLLGPTYDYTHRLLDFTLLANGEAPTLTTADSEQQPSPHVFSLLARQGLAKFEEDSGAQPDDITRTPPVYPCSRSSRLQQLMRGDEGYLLALAYSTQRGYGRNHPFAGEIRSGYIDVSIVPEELGFAVNVGELLMTECEMVNGFIDPPGEPPHFTRGYGLVFGMSERKAMAMALVDRALQAPEYGEHATGPAQDEEFVLAHADNVEAAGFVSHLKLPHYVDFQAELELLKRLQQEQNHG | – | – | – | – | – | – | – | – | – | – | 0.609 ± 0.46 | 1.36 ± 0.41 |
| MYYGFDIGGTKIALGVFDSGRQLQWEKRVPTPRDSYDAFLDAVCELVAEADQRFGCKGSVGIGIPGMPETEDGTLYAANVPAASGKPLRADLSARLDRDVRLDNDANCFALSEAWDDEFTQYPLVMGLILGTGVGGGLIFNGKPITGKSYITGEFGHMRLPVDALTMMGLDFPLRRCGCGQHGCIENYLSGRGFAWLYQHYYHQPLQAPEIIALYDQGDEQARAHVERYLDLLAVCLGNILTIVDPDLVVIGGGLSNFPAITTQLADRLPRHLLPVARVPRIERARHGDAGGMRGAAFLHLTD | 4.42 ± 0.85 | – | 3.76 ± 0.45 | 4.37 ± 0.18 | 4.06 ± 0.31 | 2.86 ± 0.4 | 4.98 ± 0.17 | 9.97 ± 0.28 | 3.9761 ± 0.0021 | 6.67 ± 1.1 | 6.09 ± 0.9 | 11.7 ± 0.2 |
| P0ABD3 | – | 5.98 ± 0.58 | 6.83 ± 1.2 | 6.67 ± 0.28 | 6.17 ± 0.69 | – | 6.73 ± 1.5 | 11.4 ± 1.6 | 5.57 ± 0.29 | 13.5 ± 2.1 | 5.92 ± 0.82 | 13.2 ± 0.8 |
| P0ABR5 | 6.36 ± 1.3 | – | – | – | – | 1.02 | 2.09 | 3.87 ± 2.6 | – | – | 1.661 ± 0.003 | 2.48 ± 0.059 |
| P0ADC1 | 6.56 ± 1.7 | – | 6.27 ± 0.14 | – | 6.59 ± 0.86 | 2.97 ± 0.026 | 6.71 ± 0.69 | 12.9 ± 0.43 | 6.33 ± 0.095 | 11.7 ± 1.9 | – | 12.7 ± 0.69 |
| P0CK95 | – | – | – | – | – | 2.75 | – | – | – | – | 6.26 ± 0.39 | 13 ± 0.41 |
